Here are results for 2 molecules from patent US20060223757, “Zinc finger binding domains for GNN” (published 2006).

For series [1], the target named is T1, E2C (six-finger Sp1C framework protein) (synthetic construct). The series is described as follows: EMSA; ±30%; 3 mismatches to E2C target.
In series [2] the target is T2, E3 (six-finger Sp1C framework protein) (synthetic construct). The series is described as follows: EMSA; ±10%; ZBA buffer with ZnCl2, room temperature.
Series [3] deals with T2, E3 (six-finger Sp1C framework protein). The series is described as follows: EMSA; ±15%; about 30-fold lower affinity than E3 target. On the technique in general: A gel shift assay detects complexes by their altered migration in electrophoresis.
Series [4] addresses T1, E2C (six-finger Sp1C framework protein). Briefly: EMSA; ±15%; ZBA buffer with ZnCl2, room temperature.

T2 sequence (chain, as listed by the source): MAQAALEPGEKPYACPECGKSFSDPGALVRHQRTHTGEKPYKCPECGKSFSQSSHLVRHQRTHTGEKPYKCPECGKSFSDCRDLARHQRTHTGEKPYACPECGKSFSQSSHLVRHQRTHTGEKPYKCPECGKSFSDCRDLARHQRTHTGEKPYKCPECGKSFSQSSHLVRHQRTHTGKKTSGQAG
T1 sequence (chain, as listed by the source): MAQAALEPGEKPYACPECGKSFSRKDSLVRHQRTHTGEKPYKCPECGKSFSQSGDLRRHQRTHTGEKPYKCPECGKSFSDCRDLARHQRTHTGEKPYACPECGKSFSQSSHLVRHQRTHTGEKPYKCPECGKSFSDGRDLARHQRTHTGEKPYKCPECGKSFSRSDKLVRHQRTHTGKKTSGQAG

B1: E3 target site (erbB-3 5'-UTR) (dsDNA)
DNA 1: GGAGCCGGAGCCGGAGTC
DNA 2: GACTCCGGCTCCGGCTCC
As a reminder, the Kd is a measure of binding affinity in units of concentration. B1: the Kd was 11 nM in series [1] and 0.35 nM in series [2].

B2: E2C target site (erbB-2 5'-UTR) (dsDNA)
DNA 1: GGGGCCGGAGCCGCAGTG
DNA 2: CACTGCGGCTCCGGCCCC
Take B2: the dissociation constant (Kd) in series [3] was determined as 10 nM; in series [4], 0.75 nM.
